Measurements as given in patent publication US10772928B2, “Modulation and detection of a neuronal alternative splicing regulatory network for treatment and diagnosis of neurological disorders” (The Governing Council of the University of Toronto, priority 2014, dated 2020).

Target: T1, nSR100 (Mus musculus, UniProt Q8BKA3)
T1 construct: host or cells: mouse N2A cells
T1 sequence (Q8BKA3 1-608): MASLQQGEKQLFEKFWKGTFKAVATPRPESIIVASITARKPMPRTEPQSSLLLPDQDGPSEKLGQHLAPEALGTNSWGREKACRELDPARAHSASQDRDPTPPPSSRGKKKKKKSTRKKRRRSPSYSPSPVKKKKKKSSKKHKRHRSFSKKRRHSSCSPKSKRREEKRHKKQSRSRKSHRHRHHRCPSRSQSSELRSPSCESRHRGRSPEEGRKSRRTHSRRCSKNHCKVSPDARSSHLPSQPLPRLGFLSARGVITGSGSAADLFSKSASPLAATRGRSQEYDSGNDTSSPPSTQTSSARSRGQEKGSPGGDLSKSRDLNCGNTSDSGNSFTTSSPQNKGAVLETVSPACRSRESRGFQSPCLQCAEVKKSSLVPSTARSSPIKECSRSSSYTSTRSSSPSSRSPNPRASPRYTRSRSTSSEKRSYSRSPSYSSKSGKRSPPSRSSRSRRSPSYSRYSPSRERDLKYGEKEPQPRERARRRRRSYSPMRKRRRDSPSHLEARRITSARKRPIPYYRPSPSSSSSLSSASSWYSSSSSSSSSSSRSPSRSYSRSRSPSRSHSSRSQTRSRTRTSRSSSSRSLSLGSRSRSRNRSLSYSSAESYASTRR
Experiment: AP-MS nSR100 interaction partners from mouse N2A cells (Table 5)
Type: binding
Conditions: for AvgP (average of the SAINT scores) / MaxP (maximal SAINT score): bait Srrm4; for FoldChange between the prey Avg spectra of the bait and control purifications: bait Srrm4, 0.1 added to prevent division by 0; for AvgSpec (average number of spectra per replicate): bait Srrm4, 2 replicates; for Spectra (number of spectra for the prey in the purification of the bait): AP-MS; for SpecSum: bait Srrm4, sum of spectra over 2 replicates

[1] = bait Srrm4, biological replicate 1 (first number of the cell)
[2] = bait Srrm4, biological replicate 2 (second number of the cell)

Text: By applying affinity purification coupled to mass-spectrometry (AP-MS), several interaction nSR100 partner proteins were detected that provide insight into mechanisms of post-translational regulation of nSR100 levels.

Molecule	AvgP (average of the SAINT scores)	MaxP (maximal SAINT score)	FoldChange between the prey Avg spectra of the bait and control purifications	AvgSpec (average number of spectra per replicate)	Spectra (number of spectra for the prey in the purification of the bait) [1]	Spectra (number of spectra for the prey in the purification of the bait) [2]	SpecSum
Wdr11 (protein, UniProt Q8K1X1 1-1223, looked up) WD repeat-containing protein …: MLPYTVNFKVSARTLTGALNAHNKAAVDWGWQGLIAYGCHSLVVVIDSNTAQTLQVLEKHKADIVKVRWARENYHHNIGSPYCLRLASADVTGKIIVWDVAAGVAQCEIQEHVKPIQDVQWLWNQDASRDLLLAIHPPNYIVLWNADTGTKLWKKSYADNILSFSFDPFDPSHLTLLTSEGIVFISDFSPSKPPSGPGKKVYISSPHSSPAHNKLAAATGAKKALNKVKILITQEKPSADFVALNDCLQLAYLPSKRNHMLLLYPREILILDLEVNQTVGVIAIERTGVPFLQVIPCSQRDGLFCLHENGCITLRVRRSYNSICTTSNDEPDLDPVQELTYDLRSQCDAIRVTKTVRPFSMVCCPVNENAAALIVSDGRVMIWELKSAVCSRNARNSSGVSPLYSPVSFCGIPGGVLQNKLPDLSLDNMIGQSAIAGEEHPKGSILQEVHLKFLLTGLLSGLPSPQFAIRMCPPLTTKNIKTYQPLLAVGTSNGSVLVYHLTSGLLHKELSVHSCEVKGIEWTSLTSFLSFAASTPNNMGLVRNELQLVDLPTGRSTAFRGDRGNDESPIEMIKVSHLKQYLAVVFKDKPLELWDIRTCTLLREMSKSFPAITALEWSPSHNLKSLRKKQLATREAMARQTVVSDAELGAVESSVISLLQEAESKAELSQNISAREHFVFTDNDGQVYHLTVEGNSVKDSARIPPDGSMGSITCIAWKGDTLVLGDMDGNLNFWDLKARVSRGIPTHRSWVRKIRFAPGKGNQKLIAMYNDGAEVWDTKEVQMVSSLRSGRNVTFRILDVDWCTSDKVILASDDGCIRVLEMSMKSTCFRMDEQELVEPVWCPYLLVPRAALALKAFLLHQPWNGRYSLDISHIDYPENEEIKTLLQEQLHALSNDIKKLLLDPDFSLLQRCLLVSRLYGDESELHFWTVAAHYLHSLSQAKSGDTVVTKEGAPKDRLSNPLDICYDVLCENTYFQKFQLERVNLQEVKRSTYDHTRKCTDQLLLLGQTDRAVQLLLETSADNQHYYCDSLKACLVTTVTSSGPSQSTIKLVATNMIANGKLAEGVQLLCLIDKAADACRYLQTYGEWNRAAWLAKVRLNSEECADVLKRWVDHLCSPQVNQKSKALLVLLSLGCFVSVAETLHSMRYFDRAALFVEACLKYGAFEVSEDTEKLIAAIYADYARSLKSLGFRQGAVRFASKAGAAGRDLLNELGSTKEELTES	0.97	1	30	3	2	4	6
Fam76b (protein, UniProt Q80XP8 2-339, looked up) Protein FAM76B: AASALYACTKCTQRYPFEELSQGQQLCKECRIAHPIVKCTYCRSEFQQESKTNTICKKCAQNVKQFGTPKPCQYCNIIAAFIGTKCQRCTNSEKKYGAPQTCEQCKQQCAFDRKEEGRRKVDGKLLCWLCTLSYKRVLQKTKEQRKSLGSSHSNSSSSSLTEKDQHHSKHHHHHHHHHHRHSSGHHKVSSLSPEQEQGLWKQSHKSSAAIQNETPKKKPKLESKPSNGDSSSINQSADSGGTDNFVLISQLKEEVMSLKRLLQQRDQTILEKDKKLTELKADFQYQESNLRTKMNSMEKAHKETVEQLQAKNRELLKQVAALSKGKKFDKSGSVLTSP	0.98	1	35	3.5	2	5	7
Sfswap (protein, UniProt Q3USH5 1-945, looked up) Splicing factor, suppressor …: MYGAGGGRAKPERKGGVKEEAGPGGTGTGGNRVELLVFGYACKLFRDDERALAQEQGQHLIPWMGDPKILIDRYDGRGHLHDLSAYDAEYATWNRDYQLSEEEARVEALCDEERYLALHTDLLEEEARQEEEYKRLSEALAEDGNYSAVGFTYGSDYYDPSEPTEEEEPSKQREKNEAENLEENEEPFIAPLGLSVPSDVELPPTAKMHAIIERTANFVCKQGAQFEIMLKAKQARNSQFDFLRFDHYLNPYYKFIQKAMKEGRYTVLAESKNEEKKKSGPTSDNEEEDDEEDGSYLHPSLFASKKSSRLEELMKPLKVVDPDHPLAALVRKAQADSSAPAPPTADGTPAQPSQVEYTADSTVAAMYYSYYMLPDGTYCLAPPPPGIDVATYYSTLPAGVTVSSSPGVTTTVPPPPGTTPPPPPTTAEPSSGVTSTTTTTSALAPVAIIPPPPDIQPVIDKLAEYVARNGLKFETSVRAKNDQRFEFLQPWHQYNAYYEFKKQFFLQKEGGGSTQAASTAEEAPTETAVEESGEAGEDGAPEGMAETGGRGSGKKEAGSSKSTVDGKLVKASFAPISFAIKAKENDLLPLEKNRVKLDDDSEEDEESRECQESTSSVANPSPAAAPPSVAVEEKKPQLTQEELEAKQAKQKLEDRLAAAAREKLAQASKESKEKQLQAERKRKAALFLQTLKNPLPEAEVGKLEESTFGVEDTGVMPCPLLVGGRTLPILEGKPPERPSNRCRDPPREEEREKKKKKHKKRSRTRSRSPKYHSSSKPRSRSHSKAKHSLPSAYRTVRRSRSRSRSPRRRAHSPERRREERSVPTAYRMSGSPGVSRKRTRSRSPHEKKKKRRSRSRTKAKARSQSTSPSKQAAQRPSAHSAHSASISPVESRGSSQERSRGVSQEKDGQISSAIVSSVQSKITQDLMAKVRAMLAASKNLQTSAS	0.97	0.99	25	2.5	2	3	5
Grpel1 (protein, UniProt Q99LP6 28-217, looked up) GrpE protein homolog 1, …: CTATKQKNNGQNLDEDLGHCEPKTDPPSADKTLLEEKAKLEEQLRETMEKYKRALADTENLRQRSQKLVEEAKLYGIQGFCKDLLEVADILEKATQSVPKEEISNNNPHLKSLYEGLVMTEVQIQKVFTKHGLLRLDPIGAKFDPYEHEALFHTPVEGKEPGTVALVSKVGYKLHGRTLRPALVGVVKDA	0.97	0.98	3.3	16.5	16	17	33
Rab5c (protein, UniProt P35278 1-216, looked up) Ras-related protein Rab-5C: MAGRGGAARPNGPAAGNKICQFKLVLLGESAVGKSSLVLRFVKGQFHEYQESTIGAAFLTQTVCLDDTTVKFEIWDTAGQERYHSLAPMYYRGAQAAIVVYDITNTDTFARAKNWVKELQRQASPNIVIALAGNKADLASKRAVEFQEAQAYADDNSLLFMETSAKTAMNVNEIFMAIAKKLPKNEPQNAAGAPGRTRGVDLQESNPASRSQCCSN	0.97	0.99	25	2.5	3	2	5
